Experiments:
[1] = Nonenzymatic hydrolysis of oxycodone ester prodrugs to oxycodone in buffered solution (HPLC); assay type: physicochemical; conditions: pH 7, 37° C.
[2] = target: T1, μ (rat) opioid receptor (Rattus norvegicus, UniProt P33535); experiment: Inhibition of radio labeled ligand binding to membranes from C6 rat glioma cells expressing recombinant μ opioid receptor; conditions: in words
T1 construct: expressed in transfected cells; host or cells: C6 rat glioma cells (membranes)
Experimental: (§1) Opioid-agonist activity was evaluated from the ability of the test article to stimulate [^35S]-GTP's binding.

[3] = target: T1, μ (rat) opioid receptor; experiment: Opioid-agonist activity: stimulation of [35S]-GTP's binding; assay type: biochemical
Experimental: as §1

[4] = test system: Pancreatin; experiment: Effect of pancreatin on release of oxycodone from prodrugs; conditions: in words
[5] = Release of oxycodone from prodrugs without pancreatin; conditions: 37° C., pH 7.4, no pancreatin

T1 sequence (P33535 whole entry): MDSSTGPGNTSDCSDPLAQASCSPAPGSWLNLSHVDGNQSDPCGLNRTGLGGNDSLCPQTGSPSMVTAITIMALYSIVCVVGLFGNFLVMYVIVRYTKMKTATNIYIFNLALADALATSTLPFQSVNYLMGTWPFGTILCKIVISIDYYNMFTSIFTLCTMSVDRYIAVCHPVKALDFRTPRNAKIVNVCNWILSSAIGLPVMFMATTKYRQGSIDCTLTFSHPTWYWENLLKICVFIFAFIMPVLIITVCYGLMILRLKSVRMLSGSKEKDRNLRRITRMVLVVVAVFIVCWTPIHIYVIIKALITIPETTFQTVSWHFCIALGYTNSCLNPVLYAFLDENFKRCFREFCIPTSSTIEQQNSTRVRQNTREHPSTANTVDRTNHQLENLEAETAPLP

## COc1ccc2c3c1OC1C(OC(C)=O)=CCC4(O)C(C2)N(C)CCC314 (stereo not shown) [6-enolacetate]
[1]
  half-life for hydrolysis: ~96 h

## COc1ccc2c3c1O[C@H]1C(=O)CC[C@@]4(OC(C)=O)[C@@H](C2)N(C)CC[C@]314 [14-acetate ester of oxycodone]
[1]
  half-life for the hydrolysis: ~0.333 h

## COc1ccc2c3c1O[C@H]1C(OC(=O)C(CCC(=O)O)NC(=O)OCc4ccccc4)=CC[C@@]4(O)[C@@H](C2)N(C)CC[C@]314 (stereo partly drawn) [Compound 1, 2-(benzyloxycarbonylamino)-pentanedioic acid 1-(3-methoxy-14-hydroxy-6,7-didehydro-4,5α-epoxy-17-methylmorphinan-6-yl) ester]
[2]
  affinity for the μ receptor relative to oxycodone: substantially lower
[3]
  EC50: 3.38 ± 0.29 µM

## poly(ethylene glycol), Mr 2,000, methyl ether, N-carbonylglutamic acid 1-(3-methoxy-14-hydroxy-6,7-didehydro-4,5α-epoxy-17-methylmorphinan-6-yl) ester [Compound 4]
[4]
  Effect of pancreatic enzymes on liberation of oxycodone from prodrug: do not markedly effect
[5]
  Half-Life for Hydrolysis, no pancreatin: 5.5 h

## poly(ethylene glycol), Mr 2,000, methyl ether, carbonylimidodiacetic acid mono-(3-methoxy-14-hydroxy-6,7-didehydro-4,5α-epoxy-17-methylmorphinan-6-yl) ester [Compound 5]
[4]
  Effect of pancreatic enzymes on liberation of oxycodone from prodrug: do not markedly effect
[5]
  Half-Life for Hydrolysis, no pancreatin: 11 h

## poly(ethylene glycol), Mr 2,000, methyl ether, carboxy ((3-methoxy-14-hydroxy-6,7-didehydro-4,5α-epoxy-17-methylmorphinan-6-yl) ester) methyl ether [Compound 8]
[4]
  Effect of pancreatic enzymes on liberation of oxycodone from prodrug: markedly enhanced
[5]
  Half-Life for Hydrolysis, no pancreatin: 6.9 h
